{"source": "paper doi:10.1101/293738", "about": "(bioRxiv, 2018)", "binders": {"B1": {"name": "CcrM DNA methyltransferase (purified recombinant) (enzyme, Caulobacter crescentus, UniProt P0CAW2 1-358, looked up)", "chain": "MKFGPETIIHGDCIEQMNALPEKSVDLIFADPPYNLQLGGDLLRPDNSKVDAVDDHWDQFESFAAYDKFTREWLKAARRVLKDDGAIWVIGSYHNIFRVGVAVQDLGFWILNDIVWRKSNPMPNFKGTRFANAHETLIWASKSQNAKRYTFNYDALKMANDEVQMRSDWTIPLCTGEERIKGADGQKAHPTQKPEALLYRVILSTTKPGDVILDPFFGVGTTGAAAKRLGRKFIGIEREAEYLEHAKARIAKVVPIAPEDLDVMGSKRAEPRVPFGTIVEAGLLSPGDTLYCSKGTHVAKVRPDGSITVGDLSGSIHKIGALVQSAPACNGWTYWHFKTDAGLAPIDVLRAQVRAGMN"}}, "target": "T1, LonS674A labelled with Atto-488 (LonS674A*) (Caulobacter crescentus, UniProt P0CAW0 1-799, S674A, Atto-488 on lysine residues (NHS ester))", "T1 sequence (looked up)": "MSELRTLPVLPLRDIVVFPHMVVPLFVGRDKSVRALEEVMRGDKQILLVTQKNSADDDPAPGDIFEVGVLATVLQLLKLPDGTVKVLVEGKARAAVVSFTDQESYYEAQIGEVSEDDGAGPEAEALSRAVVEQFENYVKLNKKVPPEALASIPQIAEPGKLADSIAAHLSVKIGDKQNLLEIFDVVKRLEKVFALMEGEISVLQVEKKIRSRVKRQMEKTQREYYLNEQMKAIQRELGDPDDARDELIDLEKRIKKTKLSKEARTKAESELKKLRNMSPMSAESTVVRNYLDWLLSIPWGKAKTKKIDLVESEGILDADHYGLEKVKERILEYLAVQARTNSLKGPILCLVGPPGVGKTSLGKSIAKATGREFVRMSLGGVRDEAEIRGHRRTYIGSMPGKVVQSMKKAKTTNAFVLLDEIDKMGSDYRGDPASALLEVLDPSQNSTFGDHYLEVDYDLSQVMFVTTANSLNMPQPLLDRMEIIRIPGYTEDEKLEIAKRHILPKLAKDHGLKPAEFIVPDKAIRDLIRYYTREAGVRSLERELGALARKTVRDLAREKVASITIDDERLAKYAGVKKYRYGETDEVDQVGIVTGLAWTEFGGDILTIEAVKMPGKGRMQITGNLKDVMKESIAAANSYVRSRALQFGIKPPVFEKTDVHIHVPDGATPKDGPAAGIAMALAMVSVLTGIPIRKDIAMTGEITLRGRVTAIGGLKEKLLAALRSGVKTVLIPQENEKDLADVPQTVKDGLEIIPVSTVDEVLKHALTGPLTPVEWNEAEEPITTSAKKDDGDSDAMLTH", "experiment": "MST"}
{"binder": "B1", "values": [{"measurement": "Kd", "value": "1180 ± 85", "unit": "nM"}]}
